In patent US8986655B2, “Compositions, devices, and methods related to prostate-specific membrane antigen” (The Regents of the University of California, priority 2009, dated 2015):

Legend:
[1] = target: transferrin receptor (TfR) (Homo sapiens, UniProt P02786); experiment: Cross-reactivity for binding transferrin receptor; conditions: homolog of PSMA (54% sequence identical)
From the text: It should be noted that the two substitutions incorporated in the sequence of peptide 3 [SEQ ID NO: 4] were L1S and D2E. The serine substitution removes a hydrophobic leucine residue, which provides the peptide with a more polar side chain, which can accept and donate hydrogen bonds (H-bonds). The hydroxyl group likely improves the surface complementarity at the binding interface with PSMA by creating new H-bonding contacts with the protein backbone, or by participating in an extended H-bonding network directly or indirectly through water to other side chains at the binding site. The selection of Glu in place of Asp merely extends the side chain length by one carbon unit. This substitution maintains contribution of the carboxylate functionality, and the length extension of 1.5 Å could allow for new H-bonding or salt-bridging opportunities. Clearly, the core sequence of the selected peptides is critical for the molecular recognition of PSMA, and this core remained conserved in the tightest binding peptides.

[2] = target: homodimeric PSMA (Homo sapiens, UniProt Q04609); experiment: Phage-based ELISA, binding to PSMA dimer; conditions: for relative binding affinity to PSMA compared with parent peptide 2: 1 μg/mL homodimeric PSMA, half of the binding time (FIG. 1A); for binding to PSMA dimer: phage-displayed peptide, 1 μg/mL PSMA dimer, ELISA (FIG. 5)
From the text: (§1) An eight residue long peptide with the amino acid sequence […] [SEQ ID NO: 1], was previously identified as a PSMA binder from an 8-mer (X8) library. […] (also referred to as peptide 1 in the Figures) to PSMA as reported previously. In addition to […] [SEQ ID NO: 1], the inventors also examined a longer 13-mer peptide, selected from a disulfide-constrained library with the amino acid sequence […] [SEQ ID NO: 3] (also referred to as peptide 2 in the Figures).
The five peptides [SEQ ID NOs: 4-8] […] These peptides were assayed for binding to 1 μg/mL of homodimeric PSMA, a concentration 10-fold less than the parent peptide required for binding assays. This higher stringency can better distinguish very high from moderate affinity binders. […] FIG. 1A illustrated peptides selected from homolog shotgun scanning library. FIG. 1B illustrates relative affinity of selected peptide 3 [SEQ ID NO: 4] versus the previous highest affinity peptide 1 [SEQ ID NO: 2]. FIG. 1C illustrates a bar graph showing that 20 nM phage displaying peptide 1 [SEQ ID NO: 2] has binding affinity similar to that of 0.2 nM phage displaying peptide 3 [SEQ ID NO: 4], and 20 nM phage displaying parent peptide 2 [SEQ ID NO: 3] has binding affinity similar to 0.02 nM phage displaying peptide 3 [SEQ ID NO: 4].
A phage-based ELISA was performed using purified peptide 10 to determine whether the peptide enhances the binding to immobilized PSMA. […] Here, the graph illustrates results for the phage displaying peptide 3 [SEQ ID NO.4], wrapped with peptide 10 binding 1 μg/mL PSMA dimer

[3] = target: PSMA (Homo sapiens, UniProt Q04609); conditions: phage-displayed ELISAs, QCM, EIS; as reported previously; cited from earlier work
[4] = target: PSMA monomer (Homo sapiens, UniProt Q04609); experiment: Phage-displayed ELISA, binding to PSMA monomer; conditions: phage-displayed peptide, 1 μg/mL PSMA monomer, ELISA (FIG. 5)
From the text: as §1

[5] = phage-based ELISA with 20 nM phage, phage concentration versus HRP activity (FIGS. 1B, 1C)

Chain of PSMA monomer (Q04609 whole entry): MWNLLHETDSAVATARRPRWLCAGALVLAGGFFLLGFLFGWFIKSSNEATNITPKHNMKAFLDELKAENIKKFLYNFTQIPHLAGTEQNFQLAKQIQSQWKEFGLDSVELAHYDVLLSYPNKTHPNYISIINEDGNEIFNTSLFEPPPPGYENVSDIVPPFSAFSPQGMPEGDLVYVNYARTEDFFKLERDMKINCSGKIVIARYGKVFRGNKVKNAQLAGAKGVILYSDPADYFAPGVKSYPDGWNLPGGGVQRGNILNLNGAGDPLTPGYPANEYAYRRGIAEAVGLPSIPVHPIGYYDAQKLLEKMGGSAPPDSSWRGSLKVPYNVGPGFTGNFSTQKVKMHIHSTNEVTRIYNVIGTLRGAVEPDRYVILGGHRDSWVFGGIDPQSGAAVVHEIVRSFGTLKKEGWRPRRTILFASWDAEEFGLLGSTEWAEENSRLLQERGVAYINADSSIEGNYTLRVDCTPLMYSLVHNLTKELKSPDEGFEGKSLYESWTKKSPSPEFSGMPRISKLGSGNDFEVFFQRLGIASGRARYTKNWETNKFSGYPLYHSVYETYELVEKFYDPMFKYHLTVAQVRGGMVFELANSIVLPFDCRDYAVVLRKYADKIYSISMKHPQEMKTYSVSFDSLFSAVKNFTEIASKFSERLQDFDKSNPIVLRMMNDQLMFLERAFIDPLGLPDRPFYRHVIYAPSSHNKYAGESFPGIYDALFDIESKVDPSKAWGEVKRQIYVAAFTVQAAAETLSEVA
Chain of homodimeric PSMA (Q04609 whole entry): as above
Chain of PSMA (Q04609 whole entry): as above
Chain of transferrin receptor (TfR) (P02786 whole entry, species assumed): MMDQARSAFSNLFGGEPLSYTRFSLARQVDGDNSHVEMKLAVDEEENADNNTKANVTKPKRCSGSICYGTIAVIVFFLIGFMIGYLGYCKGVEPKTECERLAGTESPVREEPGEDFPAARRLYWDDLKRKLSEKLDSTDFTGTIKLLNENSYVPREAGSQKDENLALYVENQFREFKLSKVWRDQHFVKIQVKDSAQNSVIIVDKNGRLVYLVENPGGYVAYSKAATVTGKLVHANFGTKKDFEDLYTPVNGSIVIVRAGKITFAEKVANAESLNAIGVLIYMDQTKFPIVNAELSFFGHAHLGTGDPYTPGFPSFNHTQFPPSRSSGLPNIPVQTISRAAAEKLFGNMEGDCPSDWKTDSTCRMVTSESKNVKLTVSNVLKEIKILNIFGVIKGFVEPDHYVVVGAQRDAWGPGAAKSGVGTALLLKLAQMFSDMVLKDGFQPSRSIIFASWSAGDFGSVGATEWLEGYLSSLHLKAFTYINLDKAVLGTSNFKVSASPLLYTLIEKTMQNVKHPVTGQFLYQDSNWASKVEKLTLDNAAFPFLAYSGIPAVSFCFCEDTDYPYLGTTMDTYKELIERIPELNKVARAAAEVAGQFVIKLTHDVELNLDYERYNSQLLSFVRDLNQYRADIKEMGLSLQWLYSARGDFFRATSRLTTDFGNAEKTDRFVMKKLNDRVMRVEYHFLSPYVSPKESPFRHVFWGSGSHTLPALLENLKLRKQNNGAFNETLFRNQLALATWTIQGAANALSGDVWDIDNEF

## SECVEVFQNSCDW [peptide 3, peptide from the homolog shotgun scanning library]
[1]
  cross-reactivity for binding transferrin receptor (TfR): no detectable cross-reactivity
[2]
  relative binding affinity to PSMA compared with parent peptide 2: higher affinity towards the target
[2]; PSMA 1 μg/mL (FIG. 1C)
  phage concentration with binding affinity similar to 20 nM phage displaying parent peptide 2: 0.02 nM
  phage concentration with binding affinity similar to 20 nM phage displaying peptide 1: 0.2 nM
[2]; [5]
  fold higher affinity for PSMA compared to parent peptide 2: ≈ 1000 times
  fold higher affinity for PSMA than peptide 1: ≈ 100 times

## CALCEFLG (Synthetic oligopeptiide) [peptide 1, reference compound]
[3]
  binding to PSMA: strong binding
[2]; phage-displayed ELISA, dimer versus monomer
  apparent affinity for dimeric PSMA relative to the monomeric isoform: exceeds affinity for the monomeric isoform
[2]
  binding to PSMA dimer: efficient binding
[2]; listed as Peptide 1
  binding to PSMA dimer: higher affinity to PSMA dimer than peptide 2
[4]
  binding to PSMA monomer: efficient binding

## LDCVEVFQNSCDW [peptide 2, 13-mer peptide selected from a disulfide-constrained library; parent of the homolog library]
[2]
  binding to PSMA dimer: only binds to dimeric PSMA
[4]
  binding to PSMA monomer: fails to bind the monomer with significant affinity
[4]; listed as Peptide 2
  binding to PSMA monomer: does not bind PSMA monomer with appreciable affinity

## SDCVEVFQNSCDW [compound 4, peptide from the homolog shotgun scanning library]
[2]
  relative binding affinity to PSMA compared with parent peptide 2: higher affinity towards the target
